Assay results published in US20210371503A1.

B1: MnC4t1p1_A10 (antibody, V domains shown)
VH: QLQVQESGPGLVKPSETLSLTCTVSGASISSNHYFWGWIRQPPGKGLAWIGSMHYSGSTYYNPSLKSRVTISVDTSKNQLSLKLSSVTAADTAVYYCARGVNYYDRNGYYRNDGFDIRGQGTMVTVSS
VL: DIQMTQSPSSLSASVGDRVTITCRASQGIRNDLGWYEQKPGKAPKRLIYAASSLESGVPSRFSGSGSGTEFTLTISSLQPEDFATYYCLQHNTYPFTFGPGTRVDIK
B2: MnC4t2p1_D10 (antibody, V domains shown)
VH: B1 VH
VL: B1 VL
B3: MnC4t2p1_F5 (antibody, V domains shown)
VH: B1 VH
VL: B1 VL

These binders were tested against SARS-CoV-2 (spike protein) antigen of the Euroimmun IgG detection kit (assay: Euroimmun IgG ELISA kit, antibody at 50 µg/ml [cont'd]).
B1 was tested, and the IgG detection test was 4.87.
B2 was tested, and the IgG detection test was 5.3.
Binder B3 has an IgG detection test of 5.19.
